Results: the domain aggregation screens of Martell et al. (2025)

Test: soluble fraction after stress (log2 fold change); higher = more stays soluble; pooled small domains, quantitative proteomics
Details: stress: 50 degC
Outline: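 Each library was heated to 50°C as a stress step. The libraries, made up of small protein domains, were pooled and analysed at high throughput by quantitative proteomics. The reported value is the base-two logarithm of the fold change in each protein's soluble amount after stress, taken as a measure of aggregation propensity. The higher the value, the more protein stays in solution.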

Row | Sequence | soluble fraction (log2)
1 | HMIGERIKRARAAAGLSMQALGKQVGISANMVKKYEHDQSMPSSGVLLKLATALSVRTEYFFRPA | -1.28
2 | HMKNHIEERRKARGMTQQQLASELGVSRQTIISLENGKYNPSILLAHSIARLFGERIEDIFILR | -1.6
3 | HMESTLNYSQFLSLVNEDRVAEVVIQGKELYVTDVNRSRFKVYAPPDPELIGLLRQKRVIISAKP | -0.0196
4 | HMKPSISKIYALWGVLQRSGKIKSQDKAALDAFVRKYTGVDHVKWLDESQARKIIEILKQMIA | -0.458
5 | HMNQADNFNSLTKREKDVLLLVTQGESNKSIADKLVLSEVTVKSHLNSIFKKLNVTNRTQAVLVAMQMNLV | 0.03
6 | HMELEKIRPDLDGLEIMAILGISPSPIVGRAYQYLLDLRMDRGPLGPDAAKAELLNWWSLNQPK | -1.3
7 | HMAGSTAASKHALALLNTARHSIRDGNLTSAAAEIKQALATSQEQIVITEARSLMTAMEARATTRRATVLQ | -0.168
8 | HMALQDKYKELTDAATAAGVTDLQVREQDNVLYIDGTAPSGAVKDQLWAIYDKIDPNFVSGDLVLNVNVD | 0.0655
9 | HMKPVTNHTVKFYVDDVLWKTVTVKHGGNVRLADLPMSDGKTFVGWSESVVNVTKDLTVFALFS | -0.562
10 | HMAKDDFMSFVKAVWPEFIEGAHHRVIAQKFNDLATGKITRLIVNMPPRHTKSEFASYLLPAW | 0.107
11 | HMSSDEEQLATLTRLLQKQEQIIQTLGPRNPMVSLQQYANTITKVIEMAGFKDTSQFINSQIP | -0.0471
12 | HMGSIMIIVLKENAPQQAAEKLMKEIRAKGLQIDVSKGTRKTVLGLVGDTSVIDMEHVQGYDYVDKVLRV | 0.0715
13 | HMRTDQYHYLAWKQVADELGIPFDEQVNERLRGVSRMASFDIILERYDGTMSDEEKIHWTDKKNEIYKSM | -0.948
14 | HMTEPKILTAEESQRLDLILVQQWPELGRRALRELVQQGGVRINGELALKAGQYVQAGERVEVAVP | 0.0571
15 | HMSMDAVSLANRLLRFFQKRPGRKFTAADLAFETGMNERTGKSLVTSALEILSRTNQIEADGDGFRLKM | 0.138
16 | HMPATTMMVVVDRDLPYGHVLTDRDVRLETRRATSPGASVAFTSIDPVLGQSLTRPLGAGTPVGRADLR | -0.155
17 | HMTSEPFYNPRRPQPYWTSETDRHTTYADAVRALAREFSETPEWVESNMGETNDLQEIRRNLSRVKSG | 0.144

Row | Sequence | soluble fraction (log2)
18 | HMPSEAVQNIIGNVKSKRRVATIGQARGLASNVIKEGKFDNVSNTAMVNRLIDLGIISNSIGYQ | 0.115
19 | HMVYNGYYAKSFNGYVVILNGDEKTVYEYTQIPIHLLPEDIRSSVMSGYYLENETDLYNFLENYS | -0.822
20 | HMIVEIVPSALHGERVDRIVAFILDVSRSVASGLVERGAVHVDGSVETSGKVRLVEGQEVSVDPSQVPG | -0.46
21 | HMTHPQVEAYLDDLARMLADIDPGERDDILASVREHLDAEIAAGHGSDAVVNATLLRLGPPEQVAAAARTN | -0.0824
22 | HMVELPDLIGKSKRLAFTQLEISGLKIGKIIYEPDLAKDAVLKILYNGKIVKAGEQLPRFATVDLVLG | -0.0407
23 | HMSSETTVPAVVGIKEDKARQLASEQGLRLRVKSREESADVEEGIIISQDPNSNTKVKKGDEIEVVVS | 0.254
24 | HMKRANGTGSVFKLNGKRRNPWVARVTQGFDDKGRQKYVNLGYYKTKREAENELLSYNSNPYDAN | 0.214
25 | HMAHYYVRNGYYYYQRRIPLDLRKFYSGANIKASLKTKDPAIAALFVAKFDRQYDAEFAQRRLNPD | -0.482
26 | HMEPDEIVLDHRKRIENSDAIVLIAPIWNFRMPAILEGWIDKVLAPPWAFKFKKLFGNYGYPVGNLKG | 0.103
27 | HMQEDKSKYLFQRGTAITVLRPAGIVRIGKERVDAVSNGSYIDRGVAVRVIEVEGTRVVVEPVPE | 0.13
28 | HMDAYMIGHNIAKWRKEKGMTQDQLAEHLSVSGQAVSKWENGASLPDIAILPKLAEIFDVTMDQLFSR | 0.144
29 | HMTEQKNNEQQNAVNEKKQALKQLMEKGKEKGSLSYNEVNALLDKLEFTEDQKAIVYDQLHSEDIELQ | 0.193
30 | HMTKSIDFDFREDGVYIKADKDVTIVDIVTKIDLRRIQSVDLTKIKQMLEIGSLDNWIKIAEPQMEK | 0.0472
31 | HMQFLKPQDVLFLLKLVVLKGPASIFPAVPESLGLSKAEVHNSAKRVRGARLLPHDSWNPLRKNLLEFL | -0.148
32 | HMVTNELFGTRLRAFRKEKGLTIEQLAERVGLSPNYLGDIERGKKLPSMATFIRLVNELDISADEL | -0.293
33 | HMGASALTEREREVLRLLEGGGSDKRIARQLAISEHGVRYHLKSIYKKLGVHDRVSAIAAGRRLAS | -0.21
34 | HMIDTPQELARLLRLLDEQNFEAEILFHKLRPDLLHLWSKEHVTRIAEALDAFDYQMALTLLNASP | -2.23
